Measured values from US20200283521A1 (GRANULAR THERAPEUTICS, published 2020).

Legend:
Assay in all cases: cell array, transfected fixed HEK293 cells
SLMAP = biological target: T1, SLMAP (human, UniProt Q14BN4)
T1 construct: expressed in transfected HEK293 cells
T1 sequence (looked up): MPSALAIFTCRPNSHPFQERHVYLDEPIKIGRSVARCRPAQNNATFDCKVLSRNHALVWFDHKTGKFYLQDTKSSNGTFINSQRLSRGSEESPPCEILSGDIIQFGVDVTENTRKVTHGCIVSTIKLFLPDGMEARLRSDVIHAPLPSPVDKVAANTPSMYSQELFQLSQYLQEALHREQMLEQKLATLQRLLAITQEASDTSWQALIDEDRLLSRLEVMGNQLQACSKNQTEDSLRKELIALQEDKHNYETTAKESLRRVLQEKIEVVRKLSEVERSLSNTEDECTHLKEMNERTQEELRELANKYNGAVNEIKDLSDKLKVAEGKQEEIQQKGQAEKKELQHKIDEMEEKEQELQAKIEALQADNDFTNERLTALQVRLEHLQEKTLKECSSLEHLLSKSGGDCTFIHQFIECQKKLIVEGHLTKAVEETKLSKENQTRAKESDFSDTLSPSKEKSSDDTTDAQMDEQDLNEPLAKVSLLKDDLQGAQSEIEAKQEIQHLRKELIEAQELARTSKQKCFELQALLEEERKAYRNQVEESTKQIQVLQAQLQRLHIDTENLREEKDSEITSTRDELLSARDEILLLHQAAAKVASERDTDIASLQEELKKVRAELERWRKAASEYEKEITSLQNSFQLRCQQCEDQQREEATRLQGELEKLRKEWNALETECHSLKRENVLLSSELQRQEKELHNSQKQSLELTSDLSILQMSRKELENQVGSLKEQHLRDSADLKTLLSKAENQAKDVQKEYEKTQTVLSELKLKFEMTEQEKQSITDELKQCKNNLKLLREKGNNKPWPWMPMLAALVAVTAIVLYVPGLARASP
Experimental: (§1) Transfection of all plasmids was confirmed by screening for the co-encoded marker ZS green (FIG. 13A).
(§2) Primary hits (duplicate spots) were identified by analysing fluorescence (AF647 and ZsGreenl) on ImageQuant. Vectors encoding all hits were sequenced to confirm their correct identities. […] Slides were analysed as above.

ZG16B = biological target: T2, ZG16B (human, UniProt Q96DA0)
T2 construct: expressed in transfected HEK293 cells
T2 sequence (looked up): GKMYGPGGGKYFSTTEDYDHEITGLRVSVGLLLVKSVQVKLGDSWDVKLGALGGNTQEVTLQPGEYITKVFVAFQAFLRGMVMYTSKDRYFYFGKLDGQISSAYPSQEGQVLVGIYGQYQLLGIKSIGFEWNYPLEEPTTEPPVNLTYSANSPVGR
Experimental: as §1, §2

EDN2 = biological target: T3, EDN2 (human, UniProt P20800)
T3 construct: expressed in transfected HEK293 cells
T3 sequence (looked up): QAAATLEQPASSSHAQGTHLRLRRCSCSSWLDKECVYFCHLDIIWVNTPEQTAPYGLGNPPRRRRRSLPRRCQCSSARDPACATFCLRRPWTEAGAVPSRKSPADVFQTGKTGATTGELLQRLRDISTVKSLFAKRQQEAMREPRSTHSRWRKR
Experimental: as §1, §2

OSM = biological target: T4, OSM (human, UniProt P13725)
T4 construct: expressed in transfected HEK293 cells
T4 sequence (looked up): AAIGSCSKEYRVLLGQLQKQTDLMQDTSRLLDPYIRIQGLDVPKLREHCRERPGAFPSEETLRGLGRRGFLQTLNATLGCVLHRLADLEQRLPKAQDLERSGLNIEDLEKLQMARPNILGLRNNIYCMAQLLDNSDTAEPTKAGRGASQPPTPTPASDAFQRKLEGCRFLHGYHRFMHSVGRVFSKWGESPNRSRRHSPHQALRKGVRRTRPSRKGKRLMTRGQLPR
Experimental: as §1, §2

TGM2 = biological target: T5, TGM2 (human, UniProt P21980)
T5 construct: expressed in transfected HEK293 cells
T5 sequence (looked up): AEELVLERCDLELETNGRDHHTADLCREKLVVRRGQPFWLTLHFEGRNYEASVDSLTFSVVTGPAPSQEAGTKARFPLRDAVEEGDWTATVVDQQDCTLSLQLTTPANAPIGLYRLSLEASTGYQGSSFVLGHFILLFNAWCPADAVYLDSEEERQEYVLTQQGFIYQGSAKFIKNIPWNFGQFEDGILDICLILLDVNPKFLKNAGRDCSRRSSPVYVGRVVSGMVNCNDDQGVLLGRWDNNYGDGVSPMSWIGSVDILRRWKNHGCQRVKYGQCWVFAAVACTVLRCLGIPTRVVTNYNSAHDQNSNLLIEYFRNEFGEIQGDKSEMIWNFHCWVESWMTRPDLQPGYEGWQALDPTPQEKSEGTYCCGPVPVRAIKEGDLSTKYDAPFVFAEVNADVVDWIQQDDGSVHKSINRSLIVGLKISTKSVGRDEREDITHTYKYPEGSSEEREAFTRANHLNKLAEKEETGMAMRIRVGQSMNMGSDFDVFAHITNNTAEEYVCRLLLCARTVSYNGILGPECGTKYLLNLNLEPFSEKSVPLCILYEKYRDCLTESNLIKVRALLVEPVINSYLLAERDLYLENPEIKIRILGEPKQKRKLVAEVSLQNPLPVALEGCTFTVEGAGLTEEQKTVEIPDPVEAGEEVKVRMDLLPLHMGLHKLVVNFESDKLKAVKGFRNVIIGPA
Experimental: as §1, §2

KRT19 = biological target: T6, KRT19 (human, UniProt P08727)
T6 construct: expressed in transfected HEK293 cells
T6 sequence (looked up): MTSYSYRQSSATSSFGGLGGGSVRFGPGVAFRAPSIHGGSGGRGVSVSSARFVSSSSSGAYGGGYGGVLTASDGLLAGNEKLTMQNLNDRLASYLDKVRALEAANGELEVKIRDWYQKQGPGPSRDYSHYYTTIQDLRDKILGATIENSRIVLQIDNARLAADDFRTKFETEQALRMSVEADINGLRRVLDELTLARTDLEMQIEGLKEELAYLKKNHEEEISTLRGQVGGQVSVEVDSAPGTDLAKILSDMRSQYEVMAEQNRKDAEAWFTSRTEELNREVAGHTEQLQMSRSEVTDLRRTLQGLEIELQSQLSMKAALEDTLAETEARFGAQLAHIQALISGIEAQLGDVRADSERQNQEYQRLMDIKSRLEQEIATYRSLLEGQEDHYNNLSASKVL
Experimental: as §1, §2

COL23A1 = biological target: T7, COL23A1 (human, UniProt Q86Y22)
T7 construct: expressed in transfected HEK293 cells
Experimental: as §1, §2

Measured: binding result

T7 sequence (Q86Y22 whole entry): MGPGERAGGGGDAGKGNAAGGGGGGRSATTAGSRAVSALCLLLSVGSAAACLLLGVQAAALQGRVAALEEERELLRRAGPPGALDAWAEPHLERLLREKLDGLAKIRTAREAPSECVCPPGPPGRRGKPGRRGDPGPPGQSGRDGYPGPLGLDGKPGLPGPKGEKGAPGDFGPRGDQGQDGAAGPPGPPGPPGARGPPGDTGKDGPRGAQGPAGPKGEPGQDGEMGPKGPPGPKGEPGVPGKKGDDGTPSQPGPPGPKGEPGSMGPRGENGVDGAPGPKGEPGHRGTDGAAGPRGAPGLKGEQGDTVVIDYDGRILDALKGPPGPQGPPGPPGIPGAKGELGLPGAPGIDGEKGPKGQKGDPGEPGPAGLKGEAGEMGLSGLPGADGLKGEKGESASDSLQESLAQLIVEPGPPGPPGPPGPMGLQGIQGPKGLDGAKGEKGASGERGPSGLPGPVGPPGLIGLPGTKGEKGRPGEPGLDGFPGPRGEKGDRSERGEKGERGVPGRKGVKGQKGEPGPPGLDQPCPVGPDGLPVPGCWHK

B1: MH1, human IgG1 (antibody, V domains shown)
VH: QVQLVQSGAEVKKPGASVKVSCKASGYTFTDYYMNWVRQAPGQGLEWMGRIYPGSGNTYYAQKFQGRVTMTRDTSTSTVYMELSSLRSEDTAVYYCARGVYYYDYWGQGTLVTVSS
VL: DIQMTQSPSSLSASVGDRVTITCRASQGIRTNLAWFQQKPGKAPKSLIYAASSLQSGVPSRFSGSGSGTDFTLTISSLQPEDFATYYCQQYNSYPRTFGGGTKVEIK
notes: IgG1; also called IgG1-MH1
no binding (tested: 2 µg/ml): all assays above
